{"source": "ChEMBL document CHEMBL4330076", "about": "“Quinazolin-2,4-dione-Based Hydroxamic Acids as Selective Histone Deacetylase-6 Inhibitors for Treatment of Non-Small Cell Lung Cancer” (J Med Chem, 2019)", "proteins": {"B1": {"name": "Protein deacetylase HDAC6 (Homo sapiens), Q9UBN7 (protein)", "chain": "MTSTGQDSTTTRQRRSRQNPQSPPQDSSVTSKRNIKKGAVPRSIPNLAEVKKKGKMKKLGQAMEEDLIVGLQGMDLNLEAEALAGTGLVLDEQLNEFHCLWDDSFPEGPERLHAIKEQLIQEGLLDRCVSFQARFAEKEELMLVHSLEYIDLMETTQYMNEGELRVLADTYDSVYLHPNSYSCACLASGSVLRLVDAVLGAEIRNGMAIIRPPGHHAQHSLMDGYCMFNHVAVAARYAQQKHRIRRVLIVDWDVHHGQGTQFTFDQDPSVLYFSIHRYEQGRFWPHLKASNWSTTGFGQGQGYTINVPWNQVGMRDADYIAAFLHVLLPVALEFQPQLVLVAAGFDALQGDPKGEMAATPAGFAQLTHLLMGLAGGKLILSLEGGYNLRALAEGVSASLHTLLGDPCPMLESPGAPCRSAQASVSCALEALEPFWEVLVRSTETVERDNMEEDNVEESEEEGPWEPPVLPILTWPVLQSRTGLVYDQNMMNHCNLWDSHHPEVPQRILRIMCRLEELGLAGRCLTLTPRPATEAELLTCHSAEYVGHLRATEKMKTRELHRESSNFDSIYICPSTFACAQLATGAACRLVEAVLSGEVLNGAAVVRPPGHHAEQDAACGFCFFNSVAVAARHAQTISGHALRILIVDWDVHHGNGTQHMFEDDPSVLYVSLHRYDHGTFFPMGDEGASSQIGRAAGTGFTVNVAWNGPRMGDADYLAAWHRLVLPIAYEFNPELVLVSAGFDAARGDPLGGCQVSPEGYAHLTHLLMGLASGRIILILEGGYNLTSISESMAACTRSLLGDPPPLLTLPRPPLSGALASITETIQVHRRYWRSLRVMKVEDREGPSSSKLVTKKAPQPAKPRLAERMTTREKKVLEAGMGKVTSASFGEESTPGQTNSETAVVALTQDQPSEAATGGATLAQTISEAAIGGAMLGQTTSEEAVGGATPDQTTSEETVGGAILDQTTSEDAVGGATLGQTTSEEAVGGATLAQTTSEAAMEGATLDQTTSEEAPGGTELIQTPLASSTDHQTPPTSPVQGTTPQISPSTLIGSLRTLELGSESQGASESQAPGEENLLGEAAGGQDMADSMLMQGSRGLTDQAIFYAVTPLPWCPHLVAVCPIPAAGLDVTQPCGDCGTIQENWVCLSCYQVYCGRYINGHMLQHHGNSGHPLVLSYIDLSAWCYYCQAYVHHQALLDVKNIAHQNKFGEDMPHPH"}}, "key": {"[1]": {"substrate": "CN1CCc2c(c3ccccc3n2Cc2ccc(C(=O)NO)cc2)C1", "conditions": "Homo sapiens; Sf9", "description": "(§1) Inhibition of human full-length recombinant HDAC6 expressed in baculovirus infected Sf9 insect cells assessed as substrate Km using Boc-Lys (Ac)-AMC as substrate preincubated for 10 mins followed by substrate addition and measured after 30 mins by fluorescence assay"}, "[2]": {"substrate": "COc1ccccc1CCn1c(=O)c2ccccc2n(Cc2ccc(C(=O)NO)cc2)c1=O", "conditions": "Homo sapiens; Sf9", "description": "as §1"}, "[3]": {"substrate": "O=C(NO)c1ccc(Cn2c(=O)n(CCc3ccccc3)c(=O)c3cccnc32)cc1", "conditions": "Homo sapiens; Sf9", "description": "as §1"}, "[4]": {"substrate": "COc1ccccc1CCn1c(=O)c2ccccc2n(Cc2ccc(C(=O)NO)cc2)c1=O", "conditions": "Homo sapiens", "description": "(§2) Inhibition of human HDAC6 CD2 expressed in Escherichia coli BL21 (RIL) assessed as substrate Km using Boc-Lys (Ac)-AMC as substrate preincubated for 10 mins followed by substrate addition and measured after 30 mins by fluorescence assay"}, "[5]": {"substrate": "O=C(NO)c1ccc(Cn2c(=O)n(CCc3ccccc3)c(=O)c3cccnc32)cc1", "conditions": "Homo sapiens", "description": "as §2"}, "[6]": {"substrate": "O=C(NO)c1ccc(Cn2c(=O)n(CCc3ccccc3)c(=O)c3ccccc32)cc1", "conditions": "Homo sapiens", "description": "Competitive inhibition of human HDAC6 CD2 expressed in Escherichia coli BL21 (RIL) assessed as substrate Km using Boc-Lys (Ac)-AMC as substrate preincubated for 10 mins followed by substrate addition and measured after 30 mins by fluorescence assay"}, "[7]": {"substrate": "O=C(NO)c1ccc(Cn2c(=O)n(CCc3ccccc3)c(=O)c3ccccc32)cc1", "conditions": "Homo sapiens; Sf9", "description": "Competitive inhibition of human full-length recombinant HDAC6 expressed in baculovirus infected Sf9 insect cells assessed as substrate Km using Boc-Lys (Ac)-AMC as substrate preincubated for 10 mins followed by substrate addition and measured after 30 mins by fluorescence assay"}}}
{"protein": "B1", "values": [{"measurement": "Km", "setting": "[1]", "result": 29.1, "unit": "µM"}, {"measurement": "Km", "setting": "[2]", "result": 34.6, "unit": "µM"}, {"measurement": "Km", "setting": "[3]", "result": 21.8, "unit": "µM"}, {"measurement": "Km", "setting": "[4]", "result": 32.5, "unit": "µM"}, {"measurement": "Km", "setting": "[5]", "result": 35.3, "unit": "µM"}, {"measurement": "Km", "setting": "[6]", "result": 29.8, "unit": "µM"}, {"measurement": "Km", "setting": "[7]", "result": 16.7, "unit": "µM"}]}
